# Measurements taken from patent US20240102094A1 (Amgen, published 2024).
# B1: hT2AB (fully human anti-human TREM2 agonistic monoclonal antibody, effectorless hIgG1) (antibody, V domains shown)
# VH: EVQLVQSGAEVKKPGESLKISCKGSGYSFTSYWIGWVRQMPGKGLEWMGIIYPGDADARYSPSFQGQVTISADKSISTAYLQWSSLKASDTAMYFCARRRQGIFGDALDFWGQGTLVTVSS
# VL: EIVMTQSPATLSVSPGERATLSCRASQSVSSNLAWFQQKPGQAPRLLIYGASTRATGIPARFSGSGSGTEFTLTISSLQPEDFAVYYCLQDNNFPPTFGQGTKVDIKR
# notes: also called hT2AB IgG1; anti-human TREM2 mAb hT2AB
# B2: hT2AB Fab (monomeric antigen-binding fragment of hT2AB) (Fab, V domains shown)
# VH: EVQLVQSGAEVKKPGESLKISCKGSGYSFTSYWIGWVRQMPGKGLEWMGIIYPGDADARYSPSFQGQVTISADKSISTAYLQWSSLKASDTAMYFCARRRQGIFGDALDFWGQGTLVTVSS
# VL: EIVMTQSPATLSVSPGERATLSCRASQSVSSNLAWFQQKPGQAPRLLIYGASTRATGIPARFSGSGSGTEFTLTISSLQPEDFAVYYCLQDNNFPPTFGQGTKVDIK
# notes: also called hT2AB Fab protein
# How the values were obtained:
# [1] = biological target: T1, human TREM2 R47H variant, expressed on cells (human, UniProt Q9NZC2 19-230); assay: flow cytometry on bone marrow-derived macrophages from TREM2R47H mice, detection with anti-hIgG Fc-PE
# T1 construct: On BMMs from TREM2R47H transgenic mice or on 2B4 NFAT:GFP reporter cells with DAP12; also called hTREM2R47H
# T1 chain: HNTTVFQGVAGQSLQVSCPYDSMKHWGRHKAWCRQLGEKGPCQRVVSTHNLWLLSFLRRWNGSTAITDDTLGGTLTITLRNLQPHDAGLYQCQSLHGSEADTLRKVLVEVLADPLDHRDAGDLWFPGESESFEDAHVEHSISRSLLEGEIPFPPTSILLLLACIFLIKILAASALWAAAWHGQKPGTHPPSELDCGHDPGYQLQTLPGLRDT
# Text: An anti-hTREM1 antibody and an isotype-matched hIgG2 control antibody were used as controls. […] Dead cells were excluded by DAPI staining.
# [2] = biological target: T2, mTREM2 expressed with mDAP12 on HEK293 cells (mouse, UniProt Q99NH8 19-227); assay: flow cytometry on HEK293 cells expressing mTREM2 and mDAP12, Geomean Fold (S/B) against antibody concentration
# T2 construct: whole, on cells
# T2 sequence (looked up): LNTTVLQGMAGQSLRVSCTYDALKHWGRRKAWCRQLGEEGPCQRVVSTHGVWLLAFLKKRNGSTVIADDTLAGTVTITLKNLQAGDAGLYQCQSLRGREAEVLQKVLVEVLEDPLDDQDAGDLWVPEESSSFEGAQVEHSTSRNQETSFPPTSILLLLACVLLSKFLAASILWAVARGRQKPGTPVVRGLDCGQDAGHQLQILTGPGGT
# [3] = biological target: T3, human TREM2, common variant, expressed on cells (human, UniProt Q9NZC2 19-230); assay: cell-based or functional assay
# T3 sequence: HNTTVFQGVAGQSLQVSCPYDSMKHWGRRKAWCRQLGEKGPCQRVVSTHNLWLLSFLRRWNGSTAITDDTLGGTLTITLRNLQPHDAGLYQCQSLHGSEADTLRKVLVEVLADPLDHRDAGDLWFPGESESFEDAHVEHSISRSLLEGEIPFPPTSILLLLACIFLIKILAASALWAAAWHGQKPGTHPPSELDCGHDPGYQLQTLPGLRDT
# [4] = biological target: T4, recombinant hTREM2:GSS:Flag:6xHis (human, UniProt Q9NZC2 19-174, minimally biotinylated (0.3-0.4 biotin/mol) when immobilised on streptavidin sensors); assay: Octet BLI; biotinylated hTREM2:GSS:Flag:6xHis on streptavidin sensors, Fab dilution series 30, 10, 3.3 nM, global 1:1 fit; Fab, not IgG; biotinylated hTREM2 on streptavidin sensors
# T4 construct: also called hTREM2-His; purified human TREM2; not shown: Flag tag
Binder,binding result [1],binding result [2],EC50 of pSyk induction in HEK293 cells expressing human TREM2 and DAP12 (clone G13) [3],EC50 of pSyk induction in human monocyte-derived macrophages (hMacs) [3],Kd [4]
B1,binds,no binding (tested: 5 ug/mL),222 pM,166 pM,–
B2,–,–,–,–,0.05 µM
